Measurements: US6297019, “Recombinant polynucleotides encoding CYP7 promoter-binding factors” (Tularik Inc.)

Target: T1, CPF (clone 113) (Homo sapiens)
T1 chain: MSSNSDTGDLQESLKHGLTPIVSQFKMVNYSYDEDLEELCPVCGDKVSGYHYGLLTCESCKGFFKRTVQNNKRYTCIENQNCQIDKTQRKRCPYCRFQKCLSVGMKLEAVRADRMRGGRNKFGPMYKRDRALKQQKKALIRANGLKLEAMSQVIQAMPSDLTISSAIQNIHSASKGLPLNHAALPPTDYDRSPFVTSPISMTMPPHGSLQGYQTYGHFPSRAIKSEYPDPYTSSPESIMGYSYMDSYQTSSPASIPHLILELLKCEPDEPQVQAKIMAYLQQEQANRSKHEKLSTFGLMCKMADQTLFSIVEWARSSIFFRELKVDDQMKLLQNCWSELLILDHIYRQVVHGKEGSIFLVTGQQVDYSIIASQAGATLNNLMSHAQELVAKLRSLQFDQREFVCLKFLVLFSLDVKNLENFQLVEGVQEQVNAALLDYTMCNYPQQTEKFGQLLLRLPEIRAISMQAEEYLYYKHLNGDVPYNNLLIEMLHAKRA
Experiment: EMSA; same DNA sequence as endogenous protein; exact probe not stated; complex disrupted by anti-CPF antibody
Conditions: tags: TNT in vitro transcription/translation; label: 32P
Excerpt: Characterization of CPF. Clone #113 encodes a full length polypeptyde of 495 amino acids, with an in-frame stop codon 30 nucleotides upstream of the first ATG. We named the protein as CPF for CYP7 Promoter-binding Factor. […] The closest homologs of CPF are the mouse version of the family, LRH-1 (SEQ ID NOS:7, 8)and a human variant, hFTF (SEQ ID NOS:9, 10). To confirm the cloned CPF is the factor responsible for the CYP7 promoter binding activity, in vitro translated CPF was used side-by-side with the HepG2 nuclear extracts in gel shift experiments. We found in vitro translated CPF recognized the same DNA sequence as the endogenous protein does and the gel shift patterns between these two appear to be identical. Antibodies raised against a peptide containing the Ftz-F1 box were used in gel shift experiments. We found the DNA-protein complex formed either with HepG2 nuclear extracts or with in vitro translated CPF was disrupted by the specific antibody but not by preimmune serum. Furthermore, the antibody recognized a hepatic-specific cellular protein that comigrates with the in vitro translated CPF. The endogenous gene product recognized by the Ftz-F1-specific antibody is apparently hepatic specific since there is no corresponding protein in 293 cells.

B1: CYP7 promoter wild-type oligo (dsDNA)
DNA 1: TCTGATACCTGTGGACTTAGTTCAAGGCCAGTTA
DNA 2: TAACTGGCCTTGAACTAAGTCCACAGGTATCAGA
  binding result: binds
